Results: US12391751B2, “Antibody against advanced glycation end products and use thereof” (Bloom Technology Corporation, priority 2018, dated 2025)

Key:
[1] = test system: retinal pigment epithelial cells (ARPE-19 cells); assay: Tight junction breakdown suppression test, impedance by xCELLigence (Example 34); format: cell-based
Protocol: FBS (FUJIFILM Wako Pure Chemical Corp.) was added at 10% to D-MEM (FUJIFILM Wako Pure Chemical Corp.), and penicillin-streptomycin (Nacalai Tesque, Inc.) was added at 1% thereto to prepare DMEM medium. ARPE-19 cells (ATCC) were cultured in the DMEM medium using a 10 cm dish (Corning Inc.).
xCELLigence RTCA DP system (ACEA Biosciences, Inc.) was installed in a CO2 incubator and used in a state loaded overnight or longer after the installation for stabilization. Immediately before cell preparation, DMEM medium was added at 50 μL/well to E-plate (ACEA Biosciences, Inc.), and a background was measured.
The medium was removed from the ARPE-19 cells cultured in (1) described above, which were then washed by repeating the addition and removal of 10 mL of PBS(−) (FUJIFILM Wako Pure Chemical Corp.) twice. 1 mL of trypsin-EDTA (FUJIFILM Wako Pure Chemical Corp.) was added thereto, and the cells were dispersed by incubation in a CO2 incubator (Taitec Corp.) at 37° C. for 3 minutes. Then, the activity of trypsin was neutralized by the addition of 10 mL of DMEM medium. The neutralized cell dispersion was transferred to a 50 mL tube (Falcon) and centrifuged at 1500 rpm for 5 minutes using a centrifuge (Kubota Corp.). Then, the supernatant was discarded, and the precipitates were resuspended in 1 mL of DMEM medium. A 10 μL aliquot of the resuspended cell dispersion was mixed with 10 μL of Trypan Blue (NanoEnTek Inc.), and 10 μL thereof was added to a counting chamber (NanoEnTek Inc.). Then, the number of live cells was counted in Auto Cell Counter EVE (NanoEnTek Inc.). The cell suspension was diluted into 4.0×10^5 cells/mL with DMEM medium and inoculated at 80 μL/well to E-plate (ACEA Biosciences, Inc.).
The impedance of the plate was measured every 15 minutes using the xCELLigence RTCA DP system to confirm the adhesion of the cells to the plate. […] After the addition, the impedance was also measured every 15 minutes.
The impedance was measured 10 to 12 hours after the addition of A-peak-BSA and normalized to that of the A-peak-BSA addition group defined as 0.

GAL13-BSA [2] = molecular target: T1, GAL13-BSA (Bos taurus, UniProt P02769); assay: Reactivity of novel monoclonal antibody by direct ELISA (Example 5); format: binding; conditions: immobilized GAL13-BSA 1 μg/mL, POD-labeled antibody dilution series from 4 μg/mL
T1 construct: purchased Sigma-Aldrich Co. LLC
T1 sequence (P02769 25-607): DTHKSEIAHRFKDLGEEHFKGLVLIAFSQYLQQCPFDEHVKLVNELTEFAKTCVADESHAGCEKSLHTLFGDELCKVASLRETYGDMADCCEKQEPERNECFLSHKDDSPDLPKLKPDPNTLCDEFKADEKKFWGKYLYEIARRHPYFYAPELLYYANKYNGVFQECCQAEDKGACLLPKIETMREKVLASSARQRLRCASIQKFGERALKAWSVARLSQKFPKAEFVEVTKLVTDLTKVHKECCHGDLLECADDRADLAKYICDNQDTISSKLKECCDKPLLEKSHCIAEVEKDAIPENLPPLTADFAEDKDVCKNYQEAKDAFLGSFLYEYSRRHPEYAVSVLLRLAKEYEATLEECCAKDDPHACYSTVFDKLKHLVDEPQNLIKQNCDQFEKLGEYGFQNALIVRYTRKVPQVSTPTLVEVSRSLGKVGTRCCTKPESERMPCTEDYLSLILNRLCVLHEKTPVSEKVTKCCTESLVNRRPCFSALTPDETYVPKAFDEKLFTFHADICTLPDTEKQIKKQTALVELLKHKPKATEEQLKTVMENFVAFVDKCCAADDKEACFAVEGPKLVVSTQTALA
Protocol: BSA modified with the novel structure derived from Glycer-AGEs (GAL13-BSA) was added at 100 μL/well with a concentration of 1 μg/mL and immobilized overnight at 4° C. The plate was washed three times with PBS containing 0.05% (v/v) Tween 20 (PBS-T) and then blocked with PBS-T containing 0.5% (w/v) gelatin for 1 hour. The POD-labeled novel monoclonal antibody SJ-5 prepared in Example 4 and the anti-glyceraldehyde-derived AGEs polyclonal antibody as a control were serially diluted into 4-fold dilutions from 4 μg/mL to 0.06254 μg/mL to prepare dilution series, which were then added at 100 μL/well to the antigen-immobilized plate and left standing for 1 hour. After washing, an o-phenylenediamine solution (100 μL) prepared into 0.5 mg/mL with a 0.1 M citrate-phosphate buffer solution (pH 5.0) containing 0.02% (w/v) hydrogen peroxide was added to each well and left standing at 25° C. for 10 minutes. Then, color reaction was terminated by the addition of a 1 M sulfuric acid solution (50 μL) to each well. Then, absorbance at 490 nm was measured with a microplate reader.

GAL13-BSA [3] = molecular target: T1, GAL13-BSA; assay: Reactivity of novel monoclonal antibody by competitive ELISA (Example 6); format: binding
Protocol: GAL13-BSA was added at 100 μL/well with a concentration of 1 μg/mL and immobilized overnight at 4° C. The plate was washed three times with PBS containing 0.05% (v/v) Tween 20 (PBS-T) and then blocked with a carbonate buffer solution (pH 9.5) containing 0.5% (w/v) gelatin for 1 hour. After preparation of a POD-labeled SJ-5 antibody (0.4 μg/mL) and an anti-glyceraldehyde-derived AGEs polyclonal antibody (6 μg/mL) as a control, 10-fold serial dilution solutions (50 μL each) of GAL13-BSA or control BSA and the POD-labeled SJ-5 antibody or the anti-glyceraldehyde-derived AGEs polyclonal antibody as a control (50 μL) were added to the antigen-immobilized plate, stirred with a plate mixer, and then left standing at room temperature for 1 hour. After washing, an o-phenylenediamine solution (100 μL) prepared into 0.5 mg/mL with a 0.1 M citrate-phosphate buffer solution (pH 5.0) containing 0.02% (w/v) hydrogen peroxide was added to each well and left standing at 25° C. for 10 minutes. Then, color reaction was terminated by the addition of a 1 M sulfuric acid solution (50 μL) to each well. Then, absorbance at 490 nm was measured with a microplate reader.

reactivity with GAL13-BSA (absorbance at 490 nm) (GAL13-BSA [2])	antibody concentration giving similar results, lower than that of the polyclonal antibody (GAL13-BSA [3]; competitive ELISA, versus anti-glyceraldehyde-derived AGEs polyclonal antibody) [times]	reactivity with GAL13-BSA in the competitive method (GAL13-BSA [3]; immobilized GAL13-BSA, POD-labeled SJ-5 0.4 μg/mL, polyclonal antibody 6 μg/mL)	Molecule	suppression of A-peak-BSA-induced reduction in impedance ([1]; 9 μL of PB-1 at 10, 3, 1 or 0.3 mg/mL)	suppression of reduction in impedance compared with SJ-5 antibody ([1]; PB-1 even in a lower concentration region)	suppression of A-peak-BSA-induced reduction in impedance ([1]; SJ-5 final concentration of 1 mg/mL)
–	–	–	PB-1: mouse monoclonal antibody raised against A-peak-BSA; heavy-chain variable region SEQ ID NO 18, light-chain variable region SEQ ID NO 22 (antibody, listed as Mus musculus, V domains shown) VH: EVRLQQSGPELVKPGTSVKISCKASGYSFTGYYMHWVKQSPVKSLEWIGRIIPYNGATSYNQNFKDKASLTVDKSSRTAYMDLHSLTSEDSAVYYCARSRYYGRAPYYFDYWGQGTTLTVSS VL: DVVVTQTPLSLPVSLGDQASISCRSSQSIVHSNGNTYLEWYLQKPGQSPKLLIYKVSNRFSGVPDRISGSGSGTDFTLKISRVEAGDLGVYSCFQGSHVPFTFGSGTKLEIK	significantly suppressed	stronger suppression than that by the SJ-5 antibody	–
react favorably	15	react favorably	SJ-5: mouse monoclonal antibody raised against GAL13-MSA; heavy-chain variable region SEQ ID NO 4, light-chain variable region SEQ ID NO 8 (antibody, listed as Mus musculus, V domains shown) VH: EVMLVESGGRLVKPGGSLKLSCAASGFTFSSYGMSWVRQTPEKRLEWVATISGGGSYTYYPDSVKGRFTISRDNVKNNLYLQMSSLRSEDTALYYCARRGAYGDYGWFAYWGQGTLVTVSA VL: DIVLTQSPATLSVTPGDSVSLSCRASQSINNNLHWYQQKSHESPRLLIKCASQSISGIPSRFSGSGSGTDFTLSINSVETEDFGMYFCQQSNSWPLTFGAGTKLELK	–	–	suppression of the reduction was found
